In patent US12234463B2, “Engineered microorganisms with G3P → 3PG enzyme and/or fructose-1,6-bisphosphatase including those having synthetic or enhanced methylotrophy” (Genomatica, Inc., priority 2018, dated 2025):

Experiments:
[1] = substrate: O=C[C@H](O)COP(=O)(O)O; test: GapN vs. GapA kinetic comparison: catalytic constants of GapA (Table 18); assay type: biochemical, E. coli; conditions: other: fixed NAD; G3P varied
[2] = substrate: NC(=O)c1ccc[n+]([C@@H]2O[C@H](COP(=O)(O)OP(=O)(O)OC[C@H]3O[C@@H](n4cnc5c(N)ncnc54)[C@H](OP(=O)(O)O)[C@@H]3O)[C@@H](O)[C@H]2O)c1; test: purified protein, by the assay type; conditions: other: fixed G3P; NADP varied

| Protein | Km [1] | kcat [1] | kcat/Km [1] | Km [2] | kcat [2] | kcat/Km [2] |
| --- | --- | --- | --- | --- | --- | --- |
| E. coli GapA (NAD-dependent glyceraldehyde-3-phosphate dehydrogenase A; P0A9B2) (Escherichia coli K-12) (protein, NAD-dependent; kinetic assay with G3P) MTIKVGINGFGRIGRIVFRAAQKRSDIEIVAINDLLDADYMAYMLKYDSTHGRFDGTVEVKDGHLIVNGKKIRVTAERDPANLKWDEVGVDVVAEATGLFLTDETARKHITAGAKKVVMTGPSKDNTPMFVKGANFDKYAGQDIVSNASCTTNCLAPLAKVINDNFGIIEGLMTTVHATTATQKTVDGPSHKDWRGGRGASQNIIPSSTGAAKAVGKVLPELNGKLTGMAFRVPTPNVSVVDLTVRLEKAATYEQIKAAVKAAAEGEMKGVLGYTEDDVVSTDFNGEVCTSVFDAKAGIALNDNFVKLVSWYDNETGYSNKVLDLIAHISK | 2000 ± 300 µM | 19 ± 1 s⁻¹ | 9500 M⁻¹ s⁻¹ |  |  |  |
| Bacillus methanolicus PB1 GapN (NADP-dependent glyceraldehyde-3-phosphate dehydrogenase), cds 10662A (Bacillus methanolicus PB1) (protein) MQVLEKDHKFLLNGKWCYSSSNEFINIYSPSTGEIVGRVPAMTKDEIDKAVAGACQAQKNWEKLAVSDRAKILHAWADELVKMIDVIAPMIMNEVGKNISTAKREVIRTADIIRYTAEEGVRIHGEFINGGSLDADSSKKTAIVEKKPLGVILAISPFNYPINLAATKIAPALIAGNAVVFKPATQGAISGLLMIQALENAGLPEGLVNTVTGKGSEIGDYIITHPFIDMISFTGGTGTGQNIARKASMIPLVLELGGKDPAIVLEDADLELAAAEIVSGAFSYSGQRCTAIKRVIVLKDAAAPLIEKIKEKVEKLTVGKPEDDADITPLIDESSADFVQGLIDDALAKGATLITGNKREKNLIYPTVLSNVTKDMKVAWEEPFGPVLPCIIVDSAEEAIEIANESEFGLQASVFTTNIEKAFSIASSLDVGSVQINGRTERGPDHFPFSAVKNSGLGSQGIRQSIISMMRDKVTVINLKR |  |  |  | 320 ± 70 µM | 9.7 s⁻¹ | 31000 M⁻¹ s⁻¹ |
| Bacillus methanolicus MGA3 GapN (NADP-dependent glyceraldehyde-3-phosphate dehydrogenase), cds 10663A (Bacillus methanolicus MGA3) (protein) MQVLEKDFKFLLNGEWSFSSSNQFINIYSPSTGEVVGRVPAMTKDEIDKAVAGARQAQKKWEKLAVSERAKILHAWADELVKMIDVIAPMIMNEVGKNISTARKEVTRTAEIIRYTAEEGVRIHGEFINGGSLDADSSIKTAIVEKKPLGVILAISPFNYPINLAATKIAPALIAGNAVVFKPATQGAISGLLMIQALENAGLPKGLVNTVTGKGSEIGDYIITHPFIDMISFTGGTGTGQNIARKASMIPLVLELGGKDPAIVLEDADLELAATEIVSGAFSYSGQRCTAIKRVLVLKDVAAPLIEKIKEKVEKLTVGRPEDDADITPLIDESSADFVQGLIDDALAKGASLITGNKREKNLIYPTVLSNVTKDMKVAWEEPFGPVLPCIIVDSVEEAIEIANESEFGLQASVFTSNIEKAFTIASSLDVGSVQINGRTERGPDHFPFSAVKNSGLGSQGIRQSIISMMRDKVTVINLKK |  |  |  | 270 ± 40 µM | 8.2 s⁻¹ | 30000 M⁻¹ s⁻¹ |
